Assay: High throughput electrophysiology in HEK293T cells, AZD-0328
Assay type: cell-based
Conditions: HEK293T cells, held at −60 mV
Procedure: To confirm the EC50s determined by plate reader as well as develop a better understanding of maximum current flow, the engineered receptors were subjected to high throughput electrophysiology system, as described below. For HEK293T studies, cDNAs encoding ion channels were cloned into pcDNA3.1 using standard recombination techniques. HEK293T cells from Clontech (Lenti-X™ 293T Cell Line) were cultured in DMEM supplemented with 10% FBS and 1% Pen/Strep to 40-50% confluence using standard cell culture protocols, transfected with ion channel plasmids at a concentration of 18 μg per 15 cm dish using Fugene 6, and grown for an additional 24 hours. Cells were then assayed on a electrophysiological system (IonFluxHT and/or Mercury, Fluxion Biosciences) in which dose-response relationships may be assessed through a microfluidics-based platform for establishing whole cell configurations. Ensemble plates were primed with extracellular buffer (140 mM NaCl, 5 mM KCl, 2 mM CaCl2), 1 mM MgCl2, 10 mM HEPES, and 10 mM glucose, pH 7.2 with NaOH, mOsm 310), intracellular buffer (145 mM CsCl, 2 mM CaCl2, 2 mM MgCl2, 10 mM HEPES, and 10 mM EGTA, pH 7.2 with CsOH, mOsm 305), as adapted from Lynagh and Lynch, and test compounds (stocks prepared fresh) diluted in extracellular buffer. Cells were then released from the plate with Accutase, centrifuged, resuspended in extracellular buffer, and loaded into Ensemble plates. Cells were then subjected to a standard protocol for priming, trapping, breaking, and establishing whole cell configuration, with cells held at −60 mV throughout the recording. After recording baseline, progressive doses of test compounds were applied using the IonFlux software to assess dose response relationships. Data were then analyzed off-line using custom Python scripts to convert data to .csv format, re-plot traces, and apply QC measurements to reject unstable recordings (i.e. thresholding based on access resistance and/or standard deviation in baseline, as well as artifact rejection). Peak currents were then calculated and population data were fit using a 4-parameter logistic equation as described by the Hill Equation. Currents were measured on an automated patch clamp system (Fluxion Biosciences) following 1 second addition of drug and the EC50 values calculated are tabulated below in Table 13.

B1: Y115E in SEQ ID NO: 33: SEQ ID NO: 33 chimeric receptor with single substitution Y115E (protein)
chain: MRCSPGGVWLALAASLLHVSLQGEFQRKLYKELVKNYNPLERPVANDSQPLTVYFSLSLLQIMDVDEKNQVLTTNIWLQMSWTDHYLQWNVSEYPGVKTVRFPDGQIWKPDILLENSADERFDATFHTNVLVNSSGHCQYLPPGIFKSSCPMDLKNFPMDVQTCKLKFGSWSYGGWSLDLQMQEADISGYIPNGEWDLVGIPGKRSERFYECCKEPYPDVTFTVTMRRRMGYYLIQMYIPSLLIVILSWISFWINMDAAPARVGLGITTVLTMTTQSSGSRASLPKVSYVKAIDIWMAVCLLFVFSALLEYAAVNFVSRQHKELLRFRRKRRHHKSPMLNLFQEDEAGEGRFNFSAYGMGPACLQAKDGISVKGANNSNTTNPPPAPSKSPEEMRKLFIQRAKKIDKISRIGFPMAFLIFNMFYWIIYKIVRREDVHNQ
modifications: synthetic sequence of chimeric LGIC
  EC50 AZD-0328: no activity
